Reference: patent US20080313769A9, “EPSP synthase domains conferring glyphosate resistance” (Athenix Corporation, priority 2006, published 2008)

Experiments:
bacteria and plants = details: statement referring to earlier patent applications; cited from earlier work
E. coli cells = assay: Growth of E. coli expressing EPSP synthase genes on M63 agar medium containing glyphosate; format: cell-based; details: for Glyphosate resistance conferred by expression in E. coli (summary in words): M63 agar, various concentrations of glyphosate, vs pAX701 glyphosate-sensitive control
From the text: The coding sequence of the Clostridium acetobutylicum EPSP synthase gene (SEQ ID NO:5), identified in Genbank accession number NC—003030, was PCR amplified using the following primers: […] (upper) (SEQ ID NO:42) and […] (lower) (SEQ ID NO:43). The upper primer changed the start codon to ATG from TTG, as it naturally occurs. The resultant 1.3 kb product was digested with BamH I and Asc I, and ligated into the same sites of a modified version of pUC 18 and transformed into the E. coli strain DH5a. A positive clone containing the EPSP synthase insert was identified by restriction digest and named pAX714. A pAX714 colony was struck onto minimal M63 media containing IPTG, carbenicillin and 0, 20, 50 or 100 mM glyphosate, and the plates were incubated at 37° C. […] The encoded EPSP synthase (SEQ ID NO:6) was named grg10.
(§1) Plasmids pAX714 and pAX716, containing grg10 and grg20, respectively, were transformed into E. coli cells and streaked onto M63 agar medium containing IPTG, carbenicillin, and various concentrations of glyphosate. Colonies of pAX701 (containing the wild-type E. coli aroA gene) were used as glyphosate-sensitive controls.
as §1, with “pAX723” for “pAX714”, “pAX72^4,” for “pAX716,”, “grg21” for “grg10”, “grg22,” for “grg20,”

Molecule | Glyphosate resistance or tolerance conferred on organisms (in words) (bacteria and plants) | Glyphosate resistance conferred by expression in E. coli (summary in words) (E. coli cells) | other results
GRG1: EPSP synthase (SEQ ID NO:2) that confers glyphosate resistance, from U.S. application 10/739,610 (protein, listed as Enterobacteriaceae sp.) VKVTIQPGDLTGIIQSPASKSSMQRACAAALVAKGISEIINPGHSNDDKAARDIVSRLGARLEDQPDGSLQITSEGVKPVAPFIDCGESGLSIRMFTPIVALSKEEVTIKGSGSLVTRPMDFFDEILPHLGVKVKSNQGKLPLVIQGPLKPADVTVDGSLSSQFLTGLLLAYAAADASDVAIKVTNLKSRPYIDLTLDVMKRFGLKTPENRNYEEFYFKAGNVYDETKMQRYTVEGDWSGGAFLLVAGAIAGPITVRGLDIASTQADKAIVQALMSANAGIAIDAKEIKLHPADLNAFEFDATDCPDLFPPLVALASYCKGETKIKGVSRLAHKESDRGLTLQDEFGKMGVEIHLEGDLMRVIGGKGVKGAEVSSRHDHRIAMACAVAALKAVGETTIEHAEAVNKSYPDFYSDLKQLGGVVSLNHQFNFS | confers glyphosate resistance upon both bacteria and plants | – | –
grg10: EPSP synthase of Clostridium acetobutylicum (SEQ ID NO:6), expressed from plasmid pAX714 (protein, listed as Clostridium acetobutylicum) MNCVKINPCCLKGDIKIPPSKSLGHRAIICAALSEEESTIENISYSKDIKATCIGMSKLGALIIEDAKDNSTLKIKKQKLVSKEKVYIDCSESGSTVRFLIPISLIEERNVVFDGQGKLSYRPLDSYFNIFDEKEIAYSHPEGKVLPLQIKGRLKAGMFNLPGNISSQFISGLMFSLPFLEGDSIINITTNLESVGYVDMTIDMLKKFGIEIENKAYKSFFIKGNQKCKGTKYKVEGDFSQAAFWLSAGILNGNINCKDLNISSLQGDKVILDILKKMGGAIDEKSFSSKKSHTHGIVIDASQCPDLVPILSVVAALSEGTTKIVNAARLRIKESDRLKAMATELNKLGAEVVELEDGLLIEGKEKLKGGEVESWNDHRIAMALGIAALRCEESVTINGSECVSKSYPQFWSDLKQLGGDVHEWSLGE | – | confers resistance to high levels of glyphosate | Glyphosate concentration to which the encoded EPSP synthase is resistant (E. coli cells; E. coli DH5a on minimal M63 media, 37° C.): at least 100 mM; Growth of pAX714-containing cells on glyphosate (E. coli cells; minimal M63 media with IPTG, carbenicillin and 0, 20, 50 or 100 mM glyphosate, 37° C.): grew very well on all concentrations of glyphosate tested
grg20: EPSP synthase of Sulfolobus solfataricus (SEQ ID NO:12), expressed from plasmid pAX716 (protein, listed as Solfolobus solfataricus) MIVKIYPSKISGIIKAPQSKSLAIRLIFLSLFTRVYLHNLVLSEDVIDAIKSVRALGVKVKNNSEFIPPEKLEIKERFIKLKGSATTLRMLIPILAAIGGEVTIDADESLRRRPLNRIVQALSNYGISFSSYSLPLTITGKLSSNEIKISGDESSQYISGLIYALHILNGGSIEILPPISSKSYILLTIDLFKRFGSDVKFYGSKIHVNPNNLVEFQGEVAGDYGLASFYALSALVSGGGITITNLWEPKEYFGDHSIVKIFSEMGASSEYKDGRWFVKAKDKYSPIKIDIDDAPDLAMTIAGLSAIAEGTSEIIGIERLRIKESDRIESIRKILGLYGVGSEVKYNSILIFGINKGMLNSPVTDCLNDHRVAMMSSALALVNGGVITSAECVGKSNPNYWQDLLSLNAKISIE | – | confers resistance to high levels of glyphosate | –
grg21: EPSP synthase of Fusobacterium nucleatum (SEQ ID NO:8), synthetic gene in plasmid pAX723 (protein, listed as Fusobacterium nucleatum) MRNMNKKIIKADKLVGEVTPPPSKSVLHRYIIASSLAKGISKIENISYSDDIIATIEAMKKLGANIEKKDNYLLIDGSKTFDKEYLNNDSEIDCNESGSTLRFLFPLSIVKENKILFKGKGKLFKRPLSPYFENFDKYQIKCSSINENKILLDGELKSGVYEIDGNISSQFITGLLFSLPLLNGNSKIIIKGKLESSSYIDITLDCLNKFGINIINNSYKEFIIEGNQTYKSGNYQVEADYSQVAFFLVANSIGSNIKINGLNVNSLQGDKKIIDFISEIDNWTKNEKLILDGSETPDIIPILSLKACISKKEIEIVNIARLRIKESDRLSATVQELSKLGFDLIEKEDSILINSRKNFNEISNNSPISLSSHSDHRIAMTVAIASTCYEGEIILDNLDCVKKSYPNFWEVFLSLGGKIYEYLG | – | confers resistance to high levels of glyphosate | –
grg22: EPSP synthase of Methanopyrus kandleri (SEQ ID NO:10), synthetic gene in plasmid pAX724 (protein, listed as Methanopyrus kanleri) MKRVELEGIPEVRGTVCPPPSKSGSHRALIAASLCDGSTELWNVLDAEDVRATLRLCRMLGAEVDVDGEERLEATVSGFGDSPRAPEDVVDCGNSGTTLRLGCGLAALVEGTTILTGDDSLRSRPVGDLLAALRSLGVDARGRVVRGEEYPPVVISGRPLRERVAVYGDVSSQFVSALLFLGAGLGALRVDVVGDLRSRPYVDMTVETLERFGVSVVREGSSFEVEGRPRSPGKLRVENDWSSAGYFVALGAIGGEMRIEGVDLDSSHPDRRIVEITREMGAEVRRIDGGIVVRSTGRLEGVEVDLSDSPDLVPTVAAMACFAEGVTRIENVGHLRYKEVDRLRALAAELPKFGVEVREGKDWLEIVGGEPVGARVDSRGDHRMAMALAVVGAFARGKTVVERADAVSISYPRFWEDLASVGVPVHSV | – | confers resistance to high levels of glyphosate | –
GRG23: EPSP synthase (SEQ ID NO:14) isolated from a bacterial strain exhibiting strong glyphosate resistance (protein, listed as Arthrobacter globiformis, VARIANT (0)...(0) Strain ATX21308) MALERGQHGRSRRLFGASLERITMETDRLVIPGSKSITNRALLLAAAAKGTSVLVRPLVSADTSAFKTAIQALGANVSADGDNWVVEGLGQAPHLDADIWCEDAGTVARFLPPFVAAGQGKFTVDGSEQLRRRPLRPLVDGIRHLGARVSSEQLPLTIEASGLAGGEYEIEAHQSSQFASGLIMAAPYARQGLRVRIPNPVSQPYLTMTLRMMRDFGLETSTDGATVSVPPGRYTARRYEIEPDASTASYFAAASAVSGRSFEFQGLGTDSIQGDTSFFNVLGRLGAEVHWAPNSVTISGPERLNGDIEVDMGEISDTFMTLAAIAPLADGPITITNIGHARLKESDRISAMETNLRTLGVQTDVGHDWMRIYPSTPHGGRVNCHRDHRIAMAFSILGLRVDGITLDDPQCVGKTFPGFFDYLGRLFPEKALTLPG | confers glyphosate tolerance | – | –
